Patent publication US11866472B2, “Peptide for treating retinitis pigmentosa” (DAIICHI SANKYO COMPANY, LIMITED, priority 2018, dated 2024)
Numbering of substitutions follows the chain as printed. Names and notes keep the numbering of the source. Blank lines part the entries; values can stand above or below the molecule they belong to.

How the values were obtained:
[1] = biological target: T1, HTRA1 (cat) (Homo sapiens, UniProt Q92743); assay: HTRA1 (cat) inhibitory activity using peptide substrate H2-Opt (Example 3-1); format: biochemical; conditions: decomposition rate of H2-Opt; borate buffer pH 8.5; peptide 1.875 to 1,000 nM
T1 construct: The protease domain (158Gly to 373Lys), which excludes the N-terminal domain and the PDZ domain; made in house; host or cells: E. coli BL21 (DE3)
Protocol: A substrate peptide H2-Opt (Mca-IRRVSYSFK(Dnp)K) (SEQ ID NO:66) (Peptide Institute, Inc.: SEQ ID NO: 54, FIG. 8) was dissolved at 10 mM in DMSO, diluted with an assay buffer (50 mM borate and 150 mM NaCl, pH 8.5), and used at a final concentration of 10 μM. HTRA1 (HTRA1 (cat) or HTRA1 (full)) and each HTRA1-inhibiting peptide diluted with an assay buffer were mixed at 25 μL each and reacted at 37° C. for 20 minutes. Then, 50 μL of the substrate diluted with an assay buffer was added thereto. A fluorescent signal (excitation at 328 nm/emission at 393 nm) was measured using Enspire (PerkinElmer, Inc.). The final concentration of HTRA1 was 100 nM, and the final concentration of the HTRA1-inhibiting peptide was 1.875 to 1,000 nM. PROTEOSAV® SS96F black plate (Sumitomo Bakelite Co., Ltd.) was used in the reaction and the measurement.
The substrate peptide decomposition rate of the HTRA1-inhibiting peptide at each concentration was calculated. When the decomposition rate at an inhibitor concentration of 0 nM was defined as 100%, the HTRA1 (cat) and HTRA1 (full) inhibitory activity of each HTRA1-inhibiting peptide was evaluated (FIGS. 2 and 3).

[2] = tested on: human umbilical vein endothelial cells (HUVEC); assay: HUVEC migration test; format: cell-based; conditions: 300 nM in EGM growth medium; 2 hours
Protocol: HUVEC (Kurabo Industries Ltd.) was cultured for 18 hours under conditions of 37° C. and 5% CO2 in a medium (0.1% BSA-containing serum-free EGM) in which EBM™-2 basal medium (Lonza Walkersville, Inc.) containing 0.1% BSA was supplemented with an EGM™-2 SingleQuots™ additive factor set except for serum and VEGF. Then, the cells were adjusted to 4×10^5 cells/mL with 0.1% BSA-containing serum-free EGM. 4×10^5 cells/mL of the HUVEC suspension was added at 50 μL/well to the upper layer of a chamber of a Corning FluoroBlok HTS 96 Well Multiwell Permeable Support System with a […] High Density PET Membrane (Corning Inc.) having a gelatin-coated membrane. Then, each sample described below (medium 1, 2 or 3) was added at 210 μL/well to the lower layer of the chamber (n=3). […]
A FluoroBlok HTS 96 Well Multiwell Support System supplemented with the cells and the sample was incubated for 2 hours under conditions of 37° C. and 5% CO2. […] The fluorescence intensity (excitation wavelength/fluorescence wavelength: 485 nm/535 nm) of each well was measured using a plate reader (ARVO-MX, PerkinElmer, Inc.), and the migrated cells were counted for each well according to the following expression. Migrated cells=Mean fluorescence intensity of wells containing HUVEC (n=3)—Mean fluorescence intensity of blank wells (n=3).

[3] = tested on: rat model of retinal damage induced by light exposure; assay: Retinal protective effect in rat model of retinal damage induced by light exposure; format: in vivo
Protocol: Rat models of retinal damage induced by light exposure are models that induce the cell death of retinal photoreceptor cells by light exposure and are universally used as model animals of retinal degeneration (Daniel T. Organisciak et al., (1996) Invest Ophthalmol Vis Sci. Vol. 37 (No. 11): p. 2243-2257). A 0.5% (W/V) tropicamide-0.5% phenylephrine hydrochloride ophthalmic solution was ocularly instilled under adaptation to darkness to rats adapted to darkness for 72 hours. Then, the rats were exposed to white light of 5500 Lux for 3 hours. The rats thus exposed were adapted again to darkness for about 24 hours and then raised for 2 days under light-dark conditions of ordinary raising. After euthanasia, the eyeballs were excised and fixed by dipping in a 3.7% (W/V) formaldehyde-0.5 to 1% (W/V) methanol-0.2% (W/V) picric acid fixative for 24 hours or longer. After paraffin embedding, thin sliced sections were prepared. The sections were stained with hematoxylin-eosin, and a nucleus count in an outer nuclear layer of a cross-section of the retina was determined to evaluate retinal damage.
Immediately before light exposure of rats, 5 μL of HTRA1-inhibiting peptide H308 having a concentration of 0.04 mg/mL or 0.2 mg/mL was intravitreally administered under anesthesia. n=4 for a normal saline administration group, and n=5 for the other groups.
The retinal protective effects of three HTRA1-inhibiting peptides prepared in Example 6 were evaluated using the rat models of retinal damage induced by light exposure, constructed in Example (5-1). The operation followed Example 5. n=6 for all groups.

[4] = tested on: ARPE-19 cells (VEGF mRNA); assay: VEGF mRNA induction test using human retinal pigment epithelial cells ARPE-19; format: cell-based; conditions: 1 μM peptide co-added with H2O2 500 μM, normal human serum complement 25% and HTRA1 1 μM; 4 hours
Protocol: ARPE-19 cells were cultured until confluent in 12 mm Transwell with […] Pore Polyester Membrane Insert, Sterile (Corning Inc.) under conditions of 37° C. and 5% CO2 using a DMEM/F-12 medium (Wako Pure Chemical Industries, Ltd.) containing 10% fetal bovine serum (FBS) and penicillin-streptomycin (Thermo Fisher Scientific Inc.). Then, the cells were cultured in FBS-free DMEM/F-12 for 5 days. H2O2 (final concentration: 500 μM) was added to the upper and lower layers of the chamber, and normal human serum complement (Quidel Corp.) (final concentration: 25%) was added to the upper layer of the chamber. […] Four hours later, the culture supernatant was removed, and the cells were washed with PBS. Then, mRNA was extracted using SuperPrep™ Cell Lysis & RT Kit for qPCR (Toyobo Co., Ltd.) and subjected to a reverse transcription reaction. The mRNA level of VEGF was quantitatively analyzed by TaqMan Gene Expression Assays (Hs000900055_m1 and Hs02786624_g1; Thermo Fisher Scientific Inc.) using a 7900HT Fast Real-Time PCR System (Applied Biosystems, Inc.). GAPDH was used in the correction of the mRNA level.

[5] = tested on: HFD-HQ-loaded 3-year-old rabbits; assay: Protective effect on RPE cells in rabbit retinal damage model (HFD-HQ loading); format: in vivo; conditions: 50 μL of 40 mg/mL intravitreally 2 months after start of HFD-HQ; evaluated at 4 months; vs normal saline fellow eye
Source text: Retinal damage models prepared using high-fat diet (HFD) and hydroquinone (HQ) are models in which oxidative stress is induced by a pro-oxidant to cause retinal damage. These models have been reported only for mice (Diego G. Espinosa-Heidmann et al., (2006) Invest Ophthalmol Vis Sci., Vol. 47 (No. 2): p. 729-737). Accordingly, 3-year-old JW rabbits were fed for 4 months with RC4 (Oriental Yeast Co., Ltd.) diet containing 1.5% (W/V) coconut oil-0.25% (W/V) cholesterol-1.5% (W/V) peanut oil-2.4% (W/V) hydroquinone (HFD-HQ) to construct rabbit retinal damage models. After euthanasia, the eyeballs were excised, and the anterior segment of the eye was removed by an external incision of about 5 mm from the corneal limbus. The vitreous body was further separated. Then, retina-choroid-sclera was fixed by dipping in 4% (W/V) paraformaldehyde fixative for 24 hours or longer. […] The stained choroid was observed under a fluorescence microscope (BZ-9000; Keyence Corp.). The area of stained retinal pigment epithelial (RPE) cells was determined to evaluate RPE cell damage.
The retinal protective effect of the HTRA1-inhibiting peptide H308 prepared in Example 1 was evaluated using the rabbit models. […]
After 4 months from the start of feeding, RPE cell hypertrophy in the model animals was evaluated. […]

[6] = 0.2 and 1 μg/eye intravitreally, n=6

T1 sequence (Q92743 158-373): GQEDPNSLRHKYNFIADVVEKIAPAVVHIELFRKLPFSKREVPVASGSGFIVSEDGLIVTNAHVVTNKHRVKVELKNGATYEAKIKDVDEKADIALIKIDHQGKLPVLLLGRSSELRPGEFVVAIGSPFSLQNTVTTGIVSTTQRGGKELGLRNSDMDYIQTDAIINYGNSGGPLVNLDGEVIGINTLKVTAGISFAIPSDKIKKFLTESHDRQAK

HTRA1 (cat) inhibitory activity (in words) [1]: exhibited no HTRA1 inhibitory activity
B1: wild-type SPINK2: human serine protease inhibitor Kazal-type 2, 7 kDa, SEQ ID NO: 1 (FIG. 13); control (protein, listed as Homo sapiens)
chain: DPQFGLFSKYRTPNCSQYRLPGCPRHFNPVCGSDMSTYANECTLCMKIREGGHNIKIIRNGPC

B2: H308_D1G_S16A: N-terminal derivative of H308, 1Asp substituted with Gly, with S16A, SEQ ID NO: 24 (FIG. 36) (protein)
chain: GPQFGLFSKYRTPNCADHAGMACVALYEPVCGSDMSTYENECVLCMKIREGGHNIKIIRNGPCGG
migration of HUVEC induced in serum-containing medium [2]: suppressive effect on the migration of HUVEC
nucleus count in an outer nuclear layer on a cross-section of the retina [3, 6]: suppressed a decrease in nucleus count in an outer nuclear layer
expression of VEGF mRNA [4]: confirmed to suppress the expression of VEGF

B3: H322AT_D1G_S16A: HTRA1-inhibiting peptide derivative, amino acid sequence SEQ ID NO: 29 (FIG. 41) (protein)
chain: B2 chain with D17Q, A19E, V24Y, E39A, V43T
nucleus count in an outer nuclear layer on a cross-section of the retina [3, 6]: suppressed a decrease in nucleus count in an outer nuclear layer

B4: H308: SPINK2 mutant HTRA1-inhibiting peptide, amino acid sequence SEQ ID NO: 9 (FIG. 21) (protein)
chain: B2 chain with G1D, A16S
nucleus count in an outer nuclear layer on a cross-section of the retina ([3]; 5 μL of 0.04 mg/mL or 0.2 mg/mL intravitreally immediately before light exposure, vs normal saline): effect of suppressing the decrease in nucleus count in an outer nuclear layer was confirmed
hypertrophy of RPE cells: average area of RPE cells [5]: exhibited a suppressive effect on the hypertrophy of RPE cells
hypertrophy of RPE cells: number of RPE cells having a cell area of 1500 μm^2 or larger [5]: exhibited a suppressive effect on the hypertrophy of RPE cells

B5: H321AT_D1G_S16A: HTRA1-inhibiting peptide derivative, amino acid sequence SEQ ID NO: 28 (FIG. 40) (protein)
chain: B2 chain with H18F, A19D, V24Y, L26F, E39A, V43T
nucleus count in an outer nuclear layer on a cross-section of the retina [3, 6]: suppressed a decrease in nucleus count in an outer nuclear layer
